Experimental data taken from patent US20250340613A1 (JOINT STOCK COMPANY BIOCAD, published 2025).

B1: 02-004, bivalent bispecific chimeric antibody that specifically binds to PD1 and CD20 (bispecific antibody, human IgG1, kappa, L234A L235A)
heavy 1: QVQLVQSGGGLVQPGGSLRLSCAASGFTFSSYWMYWVRQVPGKGLEWVSAIDTGGGRTYYADSVKGRFAISRVNAKNTMYLQMNSLRAEDTAVYYCARDEGGGTGWGVLKDWPYGLDAWGQGTLVTVSSASTKGPSVFPLAPSSKSTSGGTAALGCLVKDYFPEPVTVSWNSGALTSGVHTFPAVLQSSGLYSLSSVVTVPSSSLGTQTYICNVNHKPSNTKVDKRVEPKSCDKTHTCPPCPAPEAAGGPSVFLFPPKPKDTLYITREPEVTCVVVDVSHEDPEVKFNWYVDGVEVHNAKTKPREEQYNSTYRVVSVLTVLHQDWLNGKEYKCKVSNKALPAPIEKTISKAKGQPREPQVCTLPPSRDELTKNQVSLSCAVKGFYPSDIAVEWESNGQPENNYKTTPPVLDSDGSFFLVSKLTVDKSRWQQGNVFSCSVMHEALHNHYTQKSLSLSPGK
light 1: QPVLTQPLSVSVALGQTARITCGGNNIGSKNVHWYQQKPGQAPVLVIYRDSNRPSGIPERFSGSNSGNTATLTISRAQAGDEADYYCQVWDSSTAVFGTGTKLTVLQRTVAAPSVFIFPPSDEQLKSGTASVVCLLNNFYPREAKVQWKVDNALQSGNSQESVTEQDSKDSTYSLSSTLTLSKADYEKHKVYACEVTHQGLSSPVTKSFNRGEC
heavy 2: not shown
light 2: DIQMTQSPSSLSASVGDRVTITCRASSSVSYMHWYQQKPGKAPKPLIYAPSNLASGVPSRFSGSGSGTDFTLTISSLQPEDFATYYCQQWSFNPPTFGQGTKVEIKQRQVKPEAWLSSGPSPGPGRLQLVCHVSGFYPKPVWVMWMRGEQEQQGTQLGDILPNANWTWYLRATLDVADGEAAGLSCRVKHSSLEGQDIILYWRGSC
notes: Produced in CHO cells
B2: 02-005, bivalent bispecific chimeric antibody that specifically binds to PD1 and CD20 (bispecific antibody, human IgG1, kappa, L234A L235A)
heavy 1: EVQLVESGGGLVQPGGSLRLSCAASGYTFTSYNMHWVRQAPGKGLEWVGAIYPGNGDTSYNQKFKGRFTISVDKSKNTLYLQMNSLRAEDTAVYYCARVVYYSNSYWYFDVWGQGTLVTVSSASTKGPSVFPLAPSSKSTSGGTAALGCLVKDYFPEPVTVSWNSGALTSGVHTFPAVLQSSGLYSLSSVVTVPSSSLGTQTYICNVNHKPSNTKVDKRVEPKSCDKTHTCPPCPAPEAAGGPSVFLFPPKPKDTLYITREPEVTCVVVDVSHEDPEVKFNWYVDGVEVHNAKTKPREEQYNSTYRVVSVLTVLHQDWLNGKEYKCKVSNKALPAPIEKTISKAKGQPREPQVCTLPPSRDELTKNQVSLSCAVKGFYPSDIAVEWESNGQPENNYKTTPPVLDSDGSFFLVSKLTVDKSRWQQGNVFSCSVMHEALHNHYTQKSLSLSPGK
light 1: DIQMTQSPSSLSASVGDRVTITCRASSSVSYMHWYQQKPGKAPKPLIYAPSNLASGVPSRFSGSGSGTDFTLTISSLQPEDFATYYCQQWSFNPPTFGQGTKVEIKRTVAAPSVFIFPPSDEQLKSGTASVVCLLNNFYPREAKVQWKVDNALQSGNSQESVTEQDSKDSTYSLSSTLTLSKADYEKHKVYACEVTHQGLSSPVTKSFNRGEC
heavy 2: not shown
light 2: QPVLTQPLSVSVALGQTARITCGGNNIGSKNVHWYQQKPGQAPVLVIYRDSNRPSGIPERFSGSNSGNTATLTISRAQAGDEADYYCQVWDSSTAVFGTGTKLTVLQQRQVKPEAWLSSGPSPGPGRLQLVCHVSGFYPKPVWVMWMRGEQEQQGTQLGDILPNANWTWYLRATLDVADGEAAGLSCRVKHSSLEGQDIILYWRGSC
notes: Produced in CHO cells
B3: 02-009, bivalent bispecific chimeric antibody that specifically binds to CD20 and CSF1R (bispecific antibody, human IgG1, kappa, L234A L235A)
heavy 1: QVQLVESGGGLVRPGGSLRLSCAASEFTFDDYAMSWVRQAPGKGLEWVSAISWNGGSTNYADSVKGRFTISRDNAKNSLYLQMNSLRAEDTALYYCASTVEVAHRRLYKYLEVWGQGTLVTVSSASTKGPSVFPLAPSSKSTSGGTAALGCLVKDYFPEPVTVSWNSGALTSGVHTFPAVLQSSGLYSLSSVVTVPSSSLGTQTYICNVNHKPSNTKVDKRVEPKSCDKTHTCPPCPAPEAAGGPSVFLFPPKPKDTLYITREPEVTCVVVDVSHEDPEVKFNWYVDGVEVHNAKTKPREEQYNSTYRVVSVLTVLHQDWLNGKEYKCKVSNKALPAPIEKTISKAKGQPREPQVCTLPPSRDELTKNQVSLSCAVKGFYPSDIAVEWESNGQPENNYKTTPPVLDSDGSFFLVSKLTVDKSRWQQGNVFSCSVMHEALHNHYTQKSLSLSPGK
light 1: QAGLTQPPSVSVAPGQTARITCGGNNIGSKSVHWYQQKPGQAPVLVVYGDSDRPSGIPERFSGSNSGNTATLTISRVEAGDEADYYCQVWDISSDHVVFGGGTQLTVLRTVAAPSVFIFPPSDEQLKSGTASVVCLLNNFYPREAKVQWKVDNALQSGNSQESVTEQDSKDSTYSLSSTLTLSKADYEKHKVYACEVTHQGLSSPVTKSFNRGEC
heavy 2: not shown
light 2: B1 light 2
notes: Produced in CHO cells

Legend:
[1] = target: T1, biotinylated peptide [NH2]…JQS[CH2CH2]biotin comprising a fragment of the human CD20 sequence (human, [NH2] at the N-terminus; [CH2CH2]biotin at the C-terminus; the letter J at position 20 is printed so and is not a standard residue code); assay: BLI Octet RED 384; biotinylated peptide on SAX sensor, antibody in solution; 1:1 global fit
T1 construct: also called CD20 peptide
Method: In the case of the biotinylated CD20 peptide, the peptide at a concentration of 5 μg/ml was immobilized on the surface of SAX sensors (High Precision Streptavidin (SAX) biosensors, ForteBio) for 120 seconds. The baseline was recorded in a 1×KB solution for 120 seconds. The sensors containing the loaded peptide were immersed into wells containing the antibody solution (analyte) in 1×KB for 15 seconds. Measurements were carried out for solutions with analyte (antibodies in the case of CD20 peptide) at concentrations of 150 μg/ml, 75 μg/ml, 37.5 μg/ml. Complex dissociation was recorded in 1×KB for 120 seconds.
(§1) All measurements were carried out at 30° C., orbital mixing speed was 1,000 revolutions per minute.
(§2) To obtain numerical values of kinetic constants (kₒₙ is the on/association rate constant, kdis is the dissociation rate constant, KD is the equilibrium dissociation constant or affinity constant), the resulting sensograms were processed according to the 1:1 interaction model using Global Fit (selection of one set of kon, kdis, KD constants to analyze several sensograms of different concentrations) of the ForteBio Octet Data Analysis 9.0 software.

[2] = target: T2, IL5R-His, Interleukin-5 receptor subunit alpha (Homo sapiens) aa 22-342 (Homo sapiens, UniProt Q01344 22-342); assay: BLI Octet RED 384; antibody on ProA sensor, antigen 30 ug/ml
T2 construct: not shown: His tag as the name implies
T2 sequence (looked up): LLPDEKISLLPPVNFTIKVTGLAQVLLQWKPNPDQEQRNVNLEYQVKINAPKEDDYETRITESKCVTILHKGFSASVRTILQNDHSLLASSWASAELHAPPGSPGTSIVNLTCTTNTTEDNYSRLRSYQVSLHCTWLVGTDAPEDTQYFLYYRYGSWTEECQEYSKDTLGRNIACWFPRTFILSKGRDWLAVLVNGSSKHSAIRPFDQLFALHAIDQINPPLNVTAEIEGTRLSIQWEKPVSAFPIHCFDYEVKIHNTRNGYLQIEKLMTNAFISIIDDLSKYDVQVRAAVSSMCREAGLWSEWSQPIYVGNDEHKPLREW

[3] = target: T3, extracellular domain of the human PD-1 protein (hPD1ex-H6F) (Homo sapiens, UniProt Q15116 21-170); assay: BLI Octet RED 384; antibody on ProA sensor, antigen 30 ug/ml (1456 nM); response at end of association
T3 construct: Molecular weight 20.6 kDa; made in CHO cells; also called hPDlex-H6F; not shown: C-terminal His and FLAG tags
Method: (§3) Experimental study of nonspecific binding of bispecific chimeric antibodies to non-target antigens was performed on Forte Bio Octert RED 384. Protein A (ProA) biosensors (ForteBio) were immersed into a solution containing antibodies at a concentration of 10 μg/ml for 150 seconds to immobilize same. The baseline was recorded in a 1×KB solution for 30 seconds. The antibody-loaded sensors were then immersed into wells containing non-target antigens at a concentration of 30 μg/ml for 150 seconds. Complex dissociation was then recorded for 30 seconds.
(§4) The reference sensors went through all the steps as the sensors used to record analyte sensograms did, with the exception of the association step—at the association step, the sensors were immersed in a kinetic buffer solution without analyte (the reference sensor signals were measured in parallel with the recording of the main sensograms). The reference signal was subtracted from the signal received on sensors interacting with the analyte during the processing of sensograms.
(§5) Sensograms were processed using ForteBio Octet Data Analysisn 9.0 software. To report no non-specific interaction, the recorded signal level was checked at the end of the association step (the response parameter).

[4] = target: T4, hIL4R-His, Interleukin-4 receptor subunit alpha (Homo sapiens) aa 27-227 (Homo sapiens, UniProt P24394 27-227); assay: BLI Octet RED 384; antibody on ProA sensor, antigen 30 ug/ml (1154 nM); response at end of association
T4 construct: range 27-227; not shown: His tag as the name implies
T4 sequence (looked up): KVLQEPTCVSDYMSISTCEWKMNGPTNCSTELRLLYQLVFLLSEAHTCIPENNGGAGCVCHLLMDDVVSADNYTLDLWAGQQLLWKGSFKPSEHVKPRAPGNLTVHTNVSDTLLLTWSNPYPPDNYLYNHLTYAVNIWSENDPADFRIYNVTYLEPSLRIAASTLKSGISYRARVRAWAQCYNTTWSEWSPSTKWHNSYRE
Method: as §3, §4, §5

[5] = target: T3, extracellular domain of the human PD-1 …; assay: BLI Octet RED 384; antibody on ProA sensor, antigen in solution; 1:1 global fit
Method: (§6) The experiments were carried out using a kinetic buffer solution (hereinafter referred to as 1×KB) having the following formulation: 4.3 mM Na₂HPO₄; 136.9 mM NaCl, 1.5 mM KH₂PO₄; 2.7 mM KCl; the volume fraction of the added Tween 20 was 0.1%; the mass fraction of the added BSA (bovine serum albumin) was 0.1%; pH 7.4. Before the measurement, the ProA sensors were regenerated with a solution of 50 mM glycine and hydrochloric acid, pH 1.8 (5 seconds in the regenerating solution, 5 seconds in 1×KB, three repetitions). In the case of the hPD1ex-H6F and hCSF1R_His antigens, the Protein A (ProA) biosensors (ForteBio) were immersed in a solution with antibodies at a concentration of 10 μg/ml for 60 seconds to immobilize same. The baseline was recorded in 1×KB for 60 seconds. The sensors loaded with the antibody were then immersed into wells containing a solution of the target antigen (analyte) in a kinetic buffer for 90 seconds. Measurements were performed for solutions with hPDlex-H6F analyte at concentrations of 2.50 μg/ml (121.4 nM), 1.25 μg/ml (60.7 nM), 0.625 μg/ml (30.35 nM). […] Then we detected complex dissociation in 1×KB for 210 s for hPDlex-H6F, 300 s for hCSF1R_His.
as §1, §2

[6] = target: T5, extracellular domain of the human CSF1R protein (hCSF1R_His) (Homo sapiens, UniProt P07333 20-512); assay: as above
T5 construct: range 20-512; Molecular weight 57.4 kDa; made in CHO cells; also called hCSF1_His; not shown: C-terminal His and FLAG tags
Method: as §6, §1, §2

T5 sequence (P07333 20-512 limits assumed): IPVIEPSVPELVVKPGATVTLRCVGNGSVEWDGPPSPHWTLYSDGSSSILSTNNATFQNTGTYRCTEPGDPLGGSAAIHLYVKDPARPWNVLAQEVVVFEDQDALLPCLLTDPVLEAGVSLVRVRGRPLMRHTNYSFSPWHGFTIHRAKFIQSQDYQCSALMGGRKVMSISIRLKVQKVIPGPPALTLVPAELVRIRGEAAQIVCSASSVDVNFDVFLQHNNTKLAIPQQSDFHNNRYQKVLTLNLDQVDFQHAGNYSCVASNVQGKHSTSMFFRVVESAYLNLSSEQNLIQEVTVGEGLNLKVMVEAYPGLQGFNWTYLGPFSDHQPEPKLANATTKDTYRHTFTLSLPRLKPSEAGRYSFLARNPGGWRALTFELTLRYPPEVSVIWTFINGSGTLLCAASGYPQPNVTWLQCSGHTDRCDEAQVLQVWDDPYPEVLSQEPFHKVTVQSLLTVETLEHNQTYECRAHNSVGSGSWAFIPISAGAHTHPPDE
T3 sequence (Q15116 21-170 limits assumed, form in doubt): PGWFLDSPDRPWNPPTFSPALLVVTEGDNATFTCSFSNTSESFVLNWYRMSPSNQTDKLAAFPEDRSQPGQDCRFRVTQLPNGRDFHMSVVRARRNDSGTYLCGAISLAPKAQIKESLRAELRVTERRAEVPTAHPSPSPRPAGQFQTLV
T1 sequence (peptide, as listed by the source): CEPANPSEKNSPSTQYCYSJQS

Binder | Kd [1] | koff [1] | kon [1] | binding result [2] | Signal level (nm) [3] | Signal level (nm) [4] | Kd [5] | koff [5] | kon [5] | Kd [6] | koff [6] | kon [6]
B1 | 1270 nM | 0.238 s⁻¹ | 188000 M⁻¹ s⁻¹ | no binding (tested: 757.6 nM) | 0.35 nm | 0.0102 nm | 3.49 nM | 0.000753 s⁻¹ | 216000 M⁻¹ s⁻¹ |  |  | 
B2 | 1120 nM | 0.342 s⁻¹ | 305000 M⁻¹ s⁻¹ | no binding (tested: 757.6 nM) | 0.139 nm | -0.0057 nm | 5.69 nM | 0.00101 s⁻¹ | 178000 M⁻¹ s⁻¹ |  |  | 
B3 | 820 nM | 0.177 s⁻¹ | 216000 M⁻¹ s⁻¹ |  | -0.0059 nm | -0.0036 nm |  |  |  | 0.42 nM | 0.00021 s⁻¹ | 500000 M⁻¹ s⁻¹
